Results: paper PMC2607196

Biological target: CNTF-Rα/CNTF binary complex (human) (UniProt P26441)
Assay: SEC

Row | Substance | stoichiometry N
1 | gp130 (D1-D3) (domain or fragment) | 1
2 | gp130 (D2-D3) (from UniProt P40189 23-918) (domain or fragment) | 1
